One may read the Kd as a measure of binding affinity in units of concentration.

The target in assay [1] is HIV-1 capsid (CA) hexamer CA (Human immunodeficiency virus 1) (UniProt O93182). Particulars: cited from earlier work.
Assay [2] concerns the target HIV-1 capsid (CA) unassembled CA (Human immunodeficiency virus 1) (UniProt O93182). Particulars: cited from earlier work.
Assay [3] concerns the target HIV-1 capsid (CA) CA (Human immunodeficiency virus 1) (UniProt O93182). The settings on record: cited from earlier work.
In assay [4] the target is unstructured FG domain of Nup98 (residues 1-499), His-tagged, as phase-separated condensates (human) (UniProt P52948).
Assay [5] concerns the target GFP-Nup98 (1-499), FG-repeat domain (UniProt P52948). In words: FFS. The settings on record: n = 10 scans; parent: est. 1.0; read off a plot.
Assay [6] deals with CPSF6 (313-327) peptide, Q16630-2. Nature of the assay: FFS. Particulars: parent: est. 1.0, read off a plot.
For assay [7], the target named is GFP-Pom121 (266-1249), transmembrane domain truncated (UniProt Q96HA1). In words: FFS. Particulars: n = 10 scans; parent: est. 1.0; read off a plot.
Assay [8] addresses GFP-Nup214 (1210-2090), FG-repeat domain (UniProt P35658). Nature of the assay: FFS. The settings on record: n = 15 scans; parent: est. 1.0; read off a plot.
Assay [9] concerns the target Nup153 (1407-1423) peptide (UniProt P49790). Nature of the assay: FFS. Particulars: parent: est. 1.0, read off a plot.
The target of another assay is CypA, GFP fusion (UniProt P62937). Nature of the assay: FFS. The settings on record: parent: est. 1.0, read off a plot.
The next assay deals with GFP-Nup42 (full-length) (UniProt O15504). Nature of the assay: FFS. Particulars: n = 10 scans; parent: est. 1.0; read off a plot.
A further assay concerns the target GFP-Nup62 (full-length) (UniProt P37198). Nature of the assay: FFS. Particulars: n = 10 scans; parent: est. 1.0; read off a plot.
The target of assay [10] is Nup98 fragment 1–119 (13 FGs). In words: FFS. The settings on record: n = 10 scans; parent: est. 1.1; read off a plot.
Assay [11] addresses Nup98 fragment 346–499 (13 FGs). In words: FFS. Particulars: n = 10 scans; parent: est. 2.4; read off a plot.
In the next assay the target is GFP-Nup58 (full-length) (UniProt Q9BVL2). Nature of the assay: FFS. The settings on record: n = 15 scans; parent: est. 1.0; read off a plot.
In assay [12] the target is Nup98 fragment 118–345 (13 FGs). Nature of the assay: FFS. The settings on record: n = 10 scans; parent: est. 1.1; read off a plot.

CPSF6 (313-327) peptide, Q16630-2, sequence (Q16630 whole entry, looked up, the tested form may be a part): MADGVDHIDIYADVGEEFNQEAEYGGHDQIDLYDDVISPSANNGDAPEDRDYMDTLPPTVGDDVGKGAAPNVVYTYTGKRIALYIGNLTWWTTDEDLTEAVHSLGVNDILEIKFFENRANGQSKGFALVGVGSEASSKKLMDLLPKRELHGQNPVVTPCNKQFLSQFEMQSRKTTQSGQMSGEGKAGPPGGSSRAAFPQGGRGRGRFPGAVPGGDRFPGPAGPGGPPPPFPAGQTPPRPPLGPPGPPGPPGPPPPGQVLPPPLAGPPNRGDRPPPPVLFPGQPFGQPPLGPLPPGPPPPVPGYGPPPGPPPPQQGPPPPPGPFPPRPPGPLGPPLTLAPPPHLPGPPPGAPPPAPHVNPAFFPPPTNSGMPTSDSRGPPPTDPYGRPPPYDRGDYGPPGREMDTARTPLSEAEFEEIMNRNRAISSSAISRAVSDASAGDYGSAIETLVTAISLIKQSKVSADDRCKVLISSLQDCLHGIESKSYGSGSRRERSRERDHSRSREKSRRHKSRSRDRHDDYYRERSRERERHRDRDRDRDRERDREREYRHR
Nup153 (1407-1423) peptide, sequence (P49790 whole entry, looked up, the tested form may be a part): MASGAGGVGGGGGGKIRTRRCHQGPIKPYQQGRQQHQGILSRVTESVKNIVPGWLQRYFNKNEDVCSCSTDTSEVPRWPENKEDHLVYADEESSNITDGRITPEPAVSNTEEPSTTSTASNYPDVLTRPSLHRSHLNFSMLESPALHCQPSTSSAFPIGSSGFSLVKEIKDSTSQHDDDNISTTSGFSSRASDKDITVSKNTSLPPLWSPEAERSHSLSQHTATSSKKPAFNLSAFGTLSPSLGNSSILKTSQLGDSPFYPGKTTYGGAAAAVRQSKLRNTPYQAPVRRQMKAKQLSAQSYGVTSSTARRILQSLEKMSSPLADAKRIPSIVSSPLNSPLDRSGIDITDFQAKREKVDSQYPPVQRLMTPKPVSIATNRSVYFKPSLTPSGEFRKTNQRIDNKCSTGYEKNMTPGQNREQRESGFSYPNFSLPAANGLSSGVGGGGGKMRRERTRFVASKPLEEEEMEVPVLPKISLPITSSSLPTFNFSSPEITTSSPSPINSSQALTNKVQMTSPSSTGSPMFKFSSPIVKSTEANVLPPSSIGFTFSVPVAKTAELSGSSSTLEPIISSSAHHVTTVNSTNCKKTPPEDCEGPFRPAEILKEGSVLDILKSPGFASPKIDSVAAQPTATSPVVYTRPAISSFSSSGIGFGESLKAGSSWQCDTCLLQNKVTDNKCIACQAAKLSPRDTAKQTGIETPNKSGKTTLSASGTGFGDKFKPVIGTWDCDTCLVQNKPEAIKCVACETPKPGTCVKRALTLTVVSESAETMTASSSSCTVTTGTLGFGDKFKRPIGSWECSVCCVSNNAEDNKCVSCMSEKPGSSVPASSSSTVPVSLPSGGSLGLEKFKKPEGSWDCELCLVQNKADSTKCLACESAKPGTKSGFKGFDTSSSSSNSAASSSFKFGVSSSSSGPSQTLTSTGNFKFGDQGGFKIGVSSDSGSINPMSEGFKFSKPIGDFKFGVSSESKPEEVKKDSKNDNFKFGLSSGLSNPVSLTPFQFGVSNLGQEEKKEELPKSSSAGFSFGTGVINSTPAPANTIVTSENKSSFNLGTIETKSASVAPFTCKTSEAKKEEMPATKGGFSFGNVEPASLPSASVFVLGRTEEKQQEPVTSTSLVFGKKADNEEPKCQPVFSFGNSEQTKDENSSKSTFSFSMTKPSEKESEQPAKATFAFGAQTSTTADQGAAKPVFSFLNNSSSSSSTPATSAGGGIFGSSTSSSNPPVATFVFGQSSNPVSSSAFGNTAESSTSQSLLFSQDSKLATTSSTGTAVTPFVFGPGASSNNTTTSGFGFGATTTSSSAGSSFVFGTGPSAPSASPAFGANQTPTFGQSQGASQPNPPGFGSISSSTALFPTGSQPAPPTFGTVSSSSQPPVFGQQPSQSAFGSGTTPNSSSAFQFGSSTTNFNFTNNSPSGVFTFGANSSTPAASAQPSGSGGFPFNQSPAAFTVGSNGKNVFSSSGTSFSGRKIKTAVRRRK

In the case of CPSF6 313-327 (from UniProt Q16630), the equilibrium dissociation constant (Kd) was 50 µM in assay [1] and 700 µM in [2].
Consider “HIV-1 capsid (CA) CA (from UniProt O93182)”, for which the Kd in assay [3] is 40 µM.
“capsid-like particles (CLPs; CA A204C cross-linked assemblies labelled with Alexa Fluor 568), wild-type (complex)” registered a median penetration depth of unlabelled CLPs into Nup98 condensates, cryo-ET in assay [4] of 65 nm.
Regarding “capsid-like particles (CLPs; CA A204C cross-linked assemblies labelled with Alexa Fluor 568), wild-type A77V”, the ratio to parent came out at 1.4 in assay [5]; 0.15 in assay [6] (n = 10 scans); 1.7 in [7]; 1.4 in assay [8]; 3.9 in [9] (n = 10 scans); 1.6 in the assay with CypA, GFP fusion (n = 10 scans). Further, the figures for the ratio to parent with GFP-Nup42 (full-length) and with GFP-Nup62 (full-length) were 1.2 and 1.7, respectively.
For the substance “capsid-like particles (CLPs; CA A204C cross-linked assemblies labelled with Alexa Fluor 568), wild-type N57D”, the response was found to be 0.19 in assay [10], 0.2 in [11] and 0.22 in assay [12]. The ratio to parent in [5] was 0.35; in assay [6] (n = 10 scans) it was 0.03; in [7] it was -0.02; in assay [8] it was 0.2; with GFP-Nup58 (full-length), -0.1; in [9] (n = 9 scans), 0.18. Further, the ratio to parent in the assay with CypA, GFP fusion (n = 10 scans) was 1.4; with GFP-Nup42 (full-length) it was 0.35; with GFP-Nup62 (full-length), -0.1.
Take “capsid-like particles (CLPs; CA A204C cross-linked assemblies labelled with Alexa Fluor 568), wild-type N74D”: the ratio to parent in assay [5] is 1.7; in [6] (n = 8 scans), 0; in [7], 1.9; in [8], 1.8; in [9] (n = 10 scans) it was 1.4; with CypA, GFP fusion (n = 8 scans) it was 1.3. Further, the ratio to parent with GFP-Nup42 (full-length) came out at 1.8.

Source of the values: article PMC10881392.
